Target: N-mEGFP full length (nucleocapsid) (SARS-CoV-2, UniProt P0DTC9 1-419)
Test: EMSA; 200 nM RNA; N-mEGFP titrated
Conditions: protein: recombinant; tags: C-terminal mEGFP; pET28a(+), Ni-purified (His tag implied); chain copies: 2

B1: 55-nt vRNA (5' UTR segment) (ssRNA)
RNA: AUUAAAGGUUUAUACCUUCCCAGGUAACAAACCAACCAACUUUCGAUCUCUUGUA
- binding result: binds

From publication PMC8035206
